The source of these data is publication PMC5374107.

This test addresses ICAM-1D1D5-Fc::PFD1235w head structure complex (human | Plasmodium falciparum). The test can be described thus: SPR; Biacore T-200; dual binding: ICAM-1D1D5 Fc immobilized (1,800, 2,100 or 1,500 RU) on Protein A CM5 chip, head structure injected at 250 nM for 240 s, then EPCR injected, two-fold dilutions 250 nM to 16 nM, 30 µL/min, 240 s association, 720 s dissociation; 10 mM HEPES pH 8.0, 300 mM NaCl, 0.05% Tween-20; one-site kinetic model. A general note: SPR reads the build-up and loss of mass on a sensor chip optically.

B1: Recombinant His-tagged EPCR (receptor)
chain: SQDASDGLQRLHMLQISYFRDPYHVWYQGNASLGGHLTHVLEGPDTNTTIIQLQPLQEPESWARTQSGLQSYLLQFHGLVRLVHQERTLAFPLTIRCFLGCELPPEGSRAHVFFEVAVNGSSFVSFRPERALWQADTQVTSGVVTFTLQQLNAYNRTRYELREFLEDTCVQYVQKHISAENTKGSQTSRSYTSLVLGVLVGSFIIAGVAVGIFLCTGGRRC
modifications: biotin (biotinylated by BirA)
B1 displayed a Kd of 271 nM, a koff of 0.00103 s⁻¹ and a kon of 3600 M⁻¹ s⁻¹.

The term Kd denotes the equilibrium constant for the complex coming apart. Higher therefore signals weaker binding. One may read the koff as the first-order rate constant of dissociation. Low values mean slow dissociation, high ones fast dissociation. Usually kon stands for a measure of how fast the partners come together. Read a low kon as slow association.
